Positions count from the first letter of the chain named.

The assay deals with cynoNotch3 monomer (cyno). Briefly: binding to cynoNotch3 monomer at 25° C., protocol similar to that for hNotch3 (method not named).

B1: 28042.1 antibody (antibody, human IgG1, kappa, V domains shown)
VH: EVQLLESGGGLVQPGGSLRLSCAASGFTFSDYMMSWVRQAPGKGLEWVSWIRSSGGTTLYADSVKGRFTISRDNSKNTLYLQMNSLRAEDTATYYCARVGGGTTGYAFDIWGQGTMVTVSS
VL: DIQMTQSPSSLSASVGDRVTITCRASQSISSYLNWYQQKPGKAPKLLIYGASSLQSGVPSRVSGTGSGTDFTLTISSLQPEDFATYYCQQSYSPSFTFGPGTKVDFER
B1 came in with a Kd of 5.35 nM.

B2: 28042.2 antibody (antibody, human IgG1, kappa, V domains shown)
VH: B1 VH
VL: B1 VL with S31N, G50A
In the case of B2, the equilibrium dissociation constant (Kd) is 214 nM.

In general, Kd refers to the free concentration of one partner at which half of the binding sites on the other are occupied at equilibrium, for simple one-to-one binding.

(Values after patent publication US20190144537A1.)
